# According to article doi:10.1101/679431 (bioRxiv, 2019):
# B1: endogenous TRAP1 (natural protein)
# chain: STQTAEDKEEPLHSIISSTESVQGSTSKHEFQAETKKLLDIVARSLYSEKEVFIRELISNASDALEKLRHKLVSDGQALPEMEIHLQTNAEKGTITIQDTGIGMTQEELVSNLGTIARSGSKAFLDALQNQAEASSKIIGQFGVGFYSAFMVADRVEVYSRSAAPGSLGYQWLSDGSGVFEIAEASGVRTGTKIIIHLKSDCKEFSSEARVRDVVTKYSNFVSFPLYLNGRRMNTLQAIWMMDPKDVREWQHEEFYRYVAQAHDKPRYTLHYKTDAPLNIRSIFYVPDMKPSMFDVSRELGSSVALYSRKVLIQTKATDILPKWLRFIRGVVDSEDIPLNLSRELLQESALIRKLRDVLQQRLIKFFIDQSKKDAEKYAKFFEDYGLFMREGIVTATEQEVKEDIAKLLRYESSALPSGQLTSLSEYASRMRAGTRNIYYLCAPNRHLAEHSPYYEAMKKKDTEVLFCFEQFDELTLLHLREFDKKKLISVETDIVVDHYKEEKFEDRSPAAECLSEKETEELMAWMRNVLGSRVTNVKVTLRLDTHPAMVTVLEMGAARHFLRMQQLAKTQEERAQLLQPTLEINPRHALIKKLNQLRASEPGLAQLLVDQIYENAMIAAGLVDDPRAMVGRLNELLVKALERH
# B2: TRAP1-GST fusion protein (natural protein)
# chain: STQTAEDKEEPLHSIISSTESVQGSTSKHEFQAETKKLLDIVARSLYSEKEVFIRELISNASDALEKLRHKLVSDGQALPEMEIHLQTNAEKGTITIQDTGIGMTQEELVSNLGTIARSGSKAFLDALQNQAEASSKIIGQFGVGFYSAFMVADRVEVYSRSAAPGSLGYQWLSDGSGVFEIAEASGVRTGTKIIIHLKSDCKEFSSEARVRDVVTKYSNFVSFPLYLNGRRMNTLQAIWMMDPKDVREWQHEEFYRYVAQAHDKPRYTLHYKTDAPLNIRSIFYVPDMKPSMFDVSRELGSSVALYSRKVLIQTKATDILPKWLRFIRGVVDSEDIPLNLSRELLQESALIRKLRDVLQQRLIKFFIDQSKKDAEKYAKFFEDYGLFMREGIVTATEQEVKEDIAKLLRYESSALPSGQLTSLSEYASRMRAGTRNIYYLCAPNRHLAEHSPYYEAMKKKDTEVLFCFEQFDELTLLHLREFDKKKLISVETDIVVDHYKEEKFEDRSPAAECLSEKETEELMAWMRNVLGSRVTNVKVTLRLDTHPAMVTVLEMGAARHFLRMQQLAKTQEERAQLLQPTLEINPRHALIKKLNQLRASEPGLAQLLVDQIYENAMIAAGLVDDPRAMVGRLNELLVKALERH
# How the values were obtained:
# [1] = molecular target: the molecule itself; test: native gel or EMSA
# [2] = molecular target: the molecule itself; test: affinity purification with mass spectrometry + native gel or EMSA
Protein,stoichiometry N [1],stoichiometry N [2]
B1,4,
B2,,4
